From US20220213221 (published 2022)
Like-named read-outs stand apart in the source and are kept apart here. One block for each binder: values may come before it.

Assays:
RhoB Q63L = target: T1, RhoB Q63L (human, UniProt P62745)
T1 chain: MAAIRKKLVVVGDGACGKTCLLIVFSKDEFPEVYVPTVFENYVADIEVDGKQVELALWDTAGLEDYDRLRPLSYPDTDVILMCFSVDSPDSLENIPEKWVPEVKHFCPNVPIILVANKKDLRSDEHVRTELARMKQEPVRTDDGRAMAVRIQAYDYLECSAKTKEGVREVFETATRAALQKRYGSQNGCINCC

RhoA T19N [1] = target: T2, RhoA T19N (human, UniProt P61586)
RhoA Q63L = RhoA Q63L (human, UniProt P61586)
RhoC Q63L = target: T3, RhoC Q63L (human, UniProt P08134)
T3 chain: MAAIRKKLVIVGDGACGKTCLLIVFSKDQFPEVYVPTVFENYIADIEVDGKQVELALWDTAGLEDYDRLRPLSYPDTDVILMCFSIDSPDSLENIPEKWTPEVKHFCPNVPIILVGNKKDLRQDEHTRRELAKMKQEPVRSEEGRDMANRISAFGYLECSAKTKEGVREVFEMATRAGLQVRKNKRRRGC

[2] = target: RhoA wild type GDP-loaded (human, UniProt P61586); assay: ELISA
RhoA T19N [3] = target: T2, RhoA T19N; assay: ELISA

T2 sequence (P61586 1-190 T19N): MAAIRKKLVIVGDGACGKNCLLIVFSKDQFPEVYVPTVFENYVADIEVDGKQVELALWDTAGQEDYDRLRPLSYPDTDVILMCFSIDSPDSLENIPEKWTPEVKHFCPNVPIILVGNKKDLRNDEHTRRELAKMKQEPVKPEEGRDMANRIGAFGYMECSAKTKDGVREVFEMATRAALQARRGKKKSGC

Kd (RhoB Q63L): 0.71 nM
B1: B6 (antibody, V domains shown)
VH: VQLQASGGGFVQPGGSLRLSCAASGYGSTIETMGWFRQAPGKEREFVSAISRAPGPSQYYADSVKGRFTISRDNSKNTVYLQMNSLRAEDTATYYCAPINNRTMQDSMFLWNYWGQGTQVTVSS

binding result (RhoA T19N [1]): no binding
B2: 5SNP65 (antibody, V domains shown)
VH: VQLQASGGGFVQPGGSLRLSCAASGATYEGEAMGWFRQAPGKEREFVSAISSYPSVISYYADSVKGRFTISRDNSKNTVYLQMNSLRAEDTATYYCAYWVNHEGTIREIYWGQGTQVTVSS

Kd (RhoA Q63L): 0.296 nM | Kd (RhoC Q63L): 0.0831 nM | Kd (RhoB Q63L): 0.278 nM
B3: 4SNP36 (antibody, V domains shown)
VH: VQLQASGGGFVQPGGSLRLSCAASGTSWKDYTMGWFRQAPGKEREFVSAISEGPGAQYYYADSVKGRFTISRDNSKNVYLQMNSLRAEDTATYYCAYSSWQPYVSYWGQGTQVTVSS

binding result [2]: no binding | binding result (RhoA T19N [3]): no binding | Kd (RhoA Q63L): 0.265 nM | Kd (RhoC Q63L): 0.0479 nM
B4: H12 (antibody, V domains shown)
VH: VQLQASGGGFVQPGGSLRLSCAASGDGSRIYAMGWFRQAPGKEREFVSAISWEQDWEHYYADSVKGRFTISRDNSKNTVYLQMNSLRAEDTATYYCAAFMTPHRNLTSMYWGQGTQVTVSS

binding result (RhoA T19N [1]): no binding
B5: 5SNP48 (antibody, V domains shown)
VH: VQLQASGGGFVQPGGSLRLSCAASGTSWFTEVMGWFRQAPGKEREFVSAISGLHDVGTYYADSVKGRFTISRDNSKNTVYLQMNSLRAEDTATYYCAALDKWYTKAMDARKDYWGQGTQVTVSS
